Results taken from patent publication EP4628097A1 (Innovent Biologics (Suzhou) Co., Ltd., dated 2025).

Experiments:
[1] = biological target: T1, human VEGF165 (human, UniProt P15692-4 27-191); assay: ELISA, relative binding activity; IEX04-012 about 40 mg/mL in F8, 40 C, 1 week
T1 construct: all are put under this molecule; also called VEGF A; VEGFA

[2] = biological target: T2, human Ang2 (human, UniProt O15123 19-496, limits assumed); assay: as above
T2 construct: Bought proteins; also called hAng2-biotin; Ang2-Bio (Sino)
T2 sequence (looked up): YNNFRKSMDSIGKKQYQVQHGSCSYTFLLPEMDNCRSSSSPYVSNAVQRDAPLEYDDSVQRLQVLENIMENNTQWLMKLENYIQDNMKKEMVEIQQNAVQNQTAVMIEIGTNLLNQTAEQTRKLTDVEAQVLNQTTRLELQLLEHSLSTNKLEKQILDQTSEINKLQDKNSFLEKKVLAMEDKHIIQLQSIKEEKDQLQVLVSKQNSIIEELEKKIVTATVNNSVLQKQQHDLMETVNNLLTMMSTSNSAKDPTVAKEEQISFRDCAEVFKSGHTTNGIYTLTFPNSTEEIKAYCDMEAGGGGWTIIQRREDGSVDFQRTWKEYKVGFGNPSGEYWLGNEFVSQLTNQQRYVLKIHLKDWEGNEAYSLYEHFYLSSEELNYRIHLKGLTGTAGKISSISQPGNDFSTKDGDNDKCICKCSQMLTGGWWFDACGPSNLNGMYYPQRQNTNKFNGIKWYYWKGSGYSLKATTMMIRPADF

[3] = biological target: T1, human VEGF165; assay: ELISA, relative binding activity; 120 mg/mL formula, 25 C, 1M
[4] = biological target: T2, human Ang2; assay: as above
[5] = biological target: T1, human VEGF165; assay: ELISA, relative binding activity; final formula 40 mg/mL, 25 C, 3M
[6] = biological target: T1, human VEGF165; assay: ELISA, relative binding activity; final formula 40 mg/mL, T0
[7] = biological target: T2, human Ang2; assay: as above
[8] = biological target: T1, human VEGF165; assay: ELISA, relative binding activity; IEX04-012 about 40 mg/mL in F2, 40 C, 1 week
[9] = biological target: T2, human Ang2; assay: as above
[10] = biological target: T1, human VEGF165; assay: ELISA, relative binding activity; IEX04-012 about 40 mg/mL in F6, 40 C, 2 weeks
[11] = biological target: T2, human Ang2; assay: as above
[12] = biological target: T1, human VEGF165; assay: ELISA, relative binding activity; final formula 40 mg/mL, 2-8 C, 12M
[13] = biological target: T2, human Ang2; assay: as above
[14] = biological target: T1, human VEGF165; assay: ELISA, relative binding activity; IEX04-012 about 40 mg/mL in F2, 40 C, 2 weeks
[15] = biological target: T2, human Ang2; assay: as above
[16] = biological target: T1, human VEGF165; assay: ELISA, relative binding activity; 120 mg/mL formula, 25 C, 3M
[17] = biological target: T2, human Ang2; assay: as above
[18] = biological target: T1, human VEGF165; assay: ELISA, relative binding activity; IEX04-012 about 40 mg/mL in F7, 40 C, 2 weeks
[19] = biological target: T2, human Ang2; assay: as above
[20] = biological target: T1, human VEGF165; assay: ELISA, relative binding activity; IEX04-012 about 40 mg/mL in F1, 40 C, 1 week
[21] = biological target: T2, human Ang2; assay: as above
[22] = biological target: T1, human VEGF165; assay: ELISA, relative binding activity; IEX04-012 about 40 mg/mL in F2, 40 C, 0 weeks
[23] = biological target: T2, human Ang2; assay: as above
[24] = biological target: T1, human VEGF165; assay: ELISA, relative binding activity; IEX04-012 about 40 mg/mL in F1, 40 C, 0 weeks
[25] = biological target: T2, human Ang2; assay: as above
[26] = biological target: T1, human VEGF165; assay: ELISA, relative binding activity; 120 mg/mL formula, T0
[27] = biological target: T2, human Ang2; assay: as above

T1 sequence (P15692 other isoform, or with tags, fused parts or gaps limits assumed): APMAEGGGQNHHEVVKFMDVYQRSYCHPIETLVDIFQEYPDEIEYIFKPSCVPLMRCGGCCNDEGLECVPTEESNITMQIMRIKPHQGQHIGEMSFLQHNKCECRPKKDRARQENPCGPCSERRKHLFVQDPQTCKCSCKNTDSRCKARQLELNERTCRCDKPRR

B1: IEX04-012 (bispecific antibody)
chain: DIQLTQSPSSLSASVGDRVTITCSASQDISNYLNWYQQKPGKAPKVLIYFTSSLHSGVPSRFSGSGSGTDFTLTISSLQPEDFATYYCQQYSTVPWTFGCGTKVEIKGGGGSGGGGSGGGGSGGGGSEVQLVESGGGLVQPGGSLRLSCAASGYDFTHYGMNWVRQAPGKCLEWVGWINTYTGEPTYAADFKRRFTFSLDTSKSTAYLQMNSLRAEDTAVYYCAKYPYYYGTSHWYFDVWGQGTLVTVSSGGGGSGGGGSGGGGSEVQLLESGGGLVQPGGSLRLSCAASGFALDYYAIGWFRQAPGKGLEGVSCISSGEGSTYYADSVKGRFTISRDNSKNTVYLQMNSLRAEDTAVYYCATDSRGDDVACEGLRRNEYDYWGQGTLVTVSS
Work on B1 yielded a Relative binding Activity to VEGF (ELISA, %) [1] of 101%, a Relative binding Activity to Ang2 (ELISA, %) [2] of 92% and a Relative binding Activity to VEGF A (ELISA, %) [3] of 96%. For the same binder, the Relative binding Activity to Ang2 (ELISA, %) [4] was 93%, the Relative binding Activity to VEGF A (ELISA, %) [5] was 96% and the Relative binding Activity to VEGF A (ELISA, %) [6] was 103%. For the same binder, the Relative binding Activity to Ang2 (ELISA, %) [7] was 95%, the Relative binding Activity to VEGF (ELISA, %) [8] was 98% and the Relative binding Activity to Ang2 (ELISA, %) [9] was 99%. The Relative binding Activity to VEGF (ELISA, %) [10] was 99%, the Relative binding Activity to Ang2 (ELISA, %) [11] was 89% and the Relative binding Activity to VEGF A (ELISA, %) [12] was 100%. For the same binder, the Relative binding Activity to Ang2 (ELISA, %) [13] was 96%, the Relative binding Activity to VEGF (ELISA, %) [14] was 99% and the Relative binding Activity to Ang2 (ELISA, %) [15] was 102%. The Relative binding Activity to VEGF A (ELISA, %) [16] was 106%, the Relative binding Activity to Ang2 (ELISA, %) [17] was 75% and the Relative binding Activity to VEGF (ELISA, %) [18] was 100%. The Relative binding Activity to Ang2 (ELISA, %) [19] was 87%, the Relative binding Activity to VEGF (ELISA, %) [20] was 98% and the Relative binding Activity to Ang2 (ELISA, %) [21] was 103%. For the same binder, the Relative binding Activity to VEGF (ELISA, %) [22] was 100%, the Relative binding Activity to Ang2 (ELISA, %) [23] was 100% and the Relative binding Activity to VEGF (ELISA, %) [24] was 100%. For the same binder, the Relative binding Activity to Ang2 (ELISA, %) [25] was 100%, the Relative binding Activity to VEGF A (ELISA, %) [26] was 101% and the Relative binding Activity to Ang2 (ELISA, %) [27] was 92%.
